Laboratory results: the supplement of paper PMC6757056
± gives the standard deviation of the averaged measurements.

B1: library; a variant is named by its letters at N, in order (parent)
chain: GCUGUCACCGGUGCUUGGUACGUUAUAUUCAGCCGGUCUGAUGAGUCUNNNNNNAGACGAAACAGC

Tests used:
(6R,S)-folinic acid [1] = variants of: B1; test: normalized RNA/DNA level without ligand (relative to sTRSVctl = 100) (log10 (% of sTRSVctl)); HEK293T overexpressing SLC46A1; higher = less ribozyme self-cleavage, higher mRNA level; details: without (6R,S)-folinic acid; ligand present: no
Method in brief: (§1)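 Library plasmids carrying ribozyme switches linked to mCherry, or to eGFP in some ligand experiments, were transfected into HEK293T at 4 µg per 6-well well, with any ligand added 1 h earlier. Seventy-two hours on, total RNA was extracted with EDTA and reverse-transcribed, amplified, barcoded and sequenced. RNA level was RNA over DNA reads normalized to a spiked-in non-cleaving sequence or to the top sequences, then scaled and log-transformed. The top set was 25 sequences, the transform was ×100 and log10, and sequences needed ≥100 DNA reads.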

(6R,S)-folinic acid [2] = variants of: B1; test: normalized RNA/DNA level with ligand (relative to sTRSVctl = 100) (log10 (% of sTRSVctl)); HEK293T overexpressing SLC46A1; ligand concentration (+) RNA-Seq: 6 mM; higher = less ribozyme self-cleavage, higher mRNA level; details: with (6R,S)-folinic acid; ligand present: yes
Method in brief: as §1

Row | Variant | normalized RNA/DNA level without ligand (log10) ((6R,S)-folinic acid [1]) | normalized RNA/DNA level with ligand (log10) ((6R,S)-folinic acid [2])
1 | ACCUAA | 2.021 ± 0.013 | 1.994 ± 0.018
2 | CCCUAC | 2.07 ± 0.025 | 2.085 ± 0.019
3 | GCCUAC | 2.056 ± 0.0034 | 2.086 ± 0.0065
4 | UCCUAC | 2.024 ± 0.015 | 2.05 ± 0.026
5 | ACCUAC | 2.0248 ± 0.0018 | 2.02 ± 0.028
6 | CCCUAG | 2.018 ± 0.004 | 2.045 ± 0.0096
7 | GCCUAG | 1.98 ± 0.023 | 2.05 ± 0.032
8 | UCCUAG | 1.849 ± 0.004 | 2.009 ± 0.0087
9 | CCCUAU | 2.0351 ± 0.0014 | 2.05 ± 0.038
10 | GCCUAU | 2.027 ± 0.018 | 2.065 ± 0.02
11 | UCCUAU | 1.9805 ± 0.00094 | 2.03 ± 0.034
12 | GCCUCA | 2.041 ± 0.02 | 2.05 ± 0.044
13 | UCCUCA | 2.046 ± 0.013 | 2.07 ± 0.034
14 | ACCUCA | 2.047 ± 0.0058 | 2.07 ± 0.049
15 | CCCUCC | 2.07 ± 0.015 | 2.006 ± 0.014
16 | GCCUCC | 2.068 ± 0.0082 | 2.05 ± 0.033
17 | UCCUCC | 2.089 ± 0.016 | 2.02 ± 0.046
18 | ACCUCC | 2.08 ± 0.0086 | 2.01 ± 0.028
19 | CCCUCG | 2.04 ± 0.025 | 1.997 ± 0.014
20 | GCCUCG | 2.034 ± 0.016 | 2.04 ± 0.046
21 | UCCUCG | 1.9194 ± 0.00071 | 2 ± 0.029
22 | ACCUCG | 2.028 ± 0.0069 | 2.074 ± 0.0045
23 | CCCUCU | 2.1 ± 0.026 | 2.09 ± 0.057

Row | Variant | normalized RNA/DNA level without ligand (log10) ((6R,S)-folinic acid [1]) | normalized RNA/DNA level with ligand (log10) ((6R,S)-folinic acid [2])
24 | GCCUCU | 2.0468 ± 0.0011 | 2.07 ± 0.027
25 | UCCUCU | 2.054 ± 0.0029 | 2.04 ± 0.024
26 | ACCUCU | 2.019 ± 0.0056 | 2.014 ± 0.015
27 | CCCUGA | 2.088 ± 0.014 | 2.1 ± 0.051
28 | GCCUGA | 2.036 ± 0.0063 | 2.07 ± 0.028
29 | UCCUGA | 2.025 ± 0.0055 | 2.045 ± 0.018
30 | ACCUGA | 1.999 ± 0.003 | 2.03 ± 0.029
31 | CCCUGC | 2.08 ± 0.025 | 2.08 ± 0.014
32 | GCCUGC | 2.052 ± 0.01 | 2.046 ± 0.013
33 | UCCUGC | 2.057 ± 0.01 | 2.077 ± 0.014
34 | ACCUGC | 2.07 ± 0.016 | 2.04 ± 0.044
35 | CCCUGG | 2.101 ± 0.017 | 2.02 ± 0.022
36 | GCCUGG | 2.001 ± 0.011 | 2.03 ± 0.034
37 | UCCUGG | 1.91 ± 0.023 | 2.04 ± 0.023
38 | ACCUGG | 1.9783 ± 0.00064 | 2.04 ± 0.034
39 | CCCUGU | 2.1 ± 0.0073 | 2.102 ± 0.016
40 | GCCUGU | 2.057 ± 0.0027 | 2.06 ± 0.038
41 | UCCUGU | 1.999 ± 0.018 | 2.05 ± 0.043
42 | ACCUGU | 2.01 ± 0.025 | 2 ± 0.024
43 | CCCUUA | 2.065 ± 0.0096 | 2.08 ± 0.064
44 | UCCUUA | 2.015 ± 0.013 | 2.05 ± 0.0049
45 | ACCUUA | 2.045 ± 0.009 | 2.041 ± 0.017
46 | GCCUUC | 2.05 ± 0.042 | 2.062 ± 0.012

Row | Variant | normalized RNA/DNA level without ligand (log10) ((6R,S)-folinic acid [1]) | normalized RNA/DNA level with ligand (log10) ((6R,S)-folinic acid [2])
47 | UCCUUC | 2.084 ± 0.002 | 2.05 ± 0.035
48 | ACCUUC | 2.038 ± 0.014 | 2.04 ± 0.045
49 | CCCUUG | 2.069 ± 0.0099 | 2.091 ± 0.017
50 | GCCUUG | 1.994 ± 0.0032 | 2.03 ± 0.033
51 | ACCUUG | 1.953 ± 0.0055 | 1.999 ± 0.011
52 | CCCUUU | 2.06 ± 0.024 | 2.06 ± 0.044
53 | GCCUUU | 2.04 ± 0.032 | 2.05 ± 0.044
54 | UCCUUU | 2.07 ± 0.021 | 2.08 ± 0.032
55 | ACCUUU | 2.071 ± 0.0086 | 2.02 ± 0.021
56 | CCGAAA | 2.0005 ± 0.0006 | 2 ± 0.016
57 | UCGAAA | 1.927 ± 0.0063 | 1.979 ± 0.0054
58 | CCGAAC | 2.035 ± 0.0081 | 2.02 ± 0.049
59 | UCGAAC | 2.027 ± 0.01 | 2.006 ± 0.0085
60 | ACGAAC | 2.02 ± 0.021 | 2.03 ± 0.044
61 | CCGAAU | 2.002 ± 0.013 | 2.019 ± 0.018
62 | ACGAAU | 1.95 ± 0.021 | 2 ± 0.035
63 | CCGACA | 2.02 ± 0.029 | 2.04 ± 0.035
64 | GCGACA | 2.024 ± 0.015 | 2.05 ± 0.03
65 | UCGACA | 1.999 ± 0.0076 | 2.022 ± 0.0062
66 | CCGACC | 2.063 ± 0.0099 | 2.04 ± 0.062
67 | GCGACC | 2.029 ± 0.0059 | 2.07 ± 0.037
68 | UCGACC | 2.052 ± 0.0052 | 2.04 ± 0.036
69 | CCGACG | 2.033 ± 0.013 | 2.0354 ± 0.0001

Row | Variant | normalized RNA/DNA level without ligand (log10) ((6R,S)-folinic acid [1]) | normalized RNA/DNA level with ligand (log10) ((6R,S)-folinic acid [2])
70 | GCGACG | 1.989 ± 0.017 | 2.02 ± 0.045
71 | UCGACG | 1.867 ± 0.017 | 1.9974 ± 0.0011
72 | CCGACU | 2.062 ± 0.0038 | 2.01 ± 0.027
73 | GCGACU | 2.051 ± 0.0076 | 2.06 ± 0.04
74 | ACGACU | 1.997 ± 0.0037 | 2.006 ± 0.017
75 | CCGAGA | 1.988 ± 0.01 | 2.011 ± 0.0034
76 | UCGAGA | 2.006 ± 0.0024 | 2.07 ± 0.049
77 | ACGAGA | 1.968 ± 0.011 | 2.03 ± 0.028
78 | UCGAGC | 2.022 ± 0.017 | 2.026 ± 0.011
79 | ACGAGC | 2.005 ± 0.012 | 2.041 ± 0.019
80 | CCGAGG | 2.011 ± 0.006 | 2.01 ± 0.028
81 | GCGAGG | 1.98 ± 0.023 | 2.05 ± 0.046
82 | UCGAGG | 1.938 ± 0.017 | 2 ± 0.025
83 | ACGAGG | 1.86 ± 0.034 | 1.995 ± 0.011
84 | CCGAGU | 2.029 ± 0.014 | 2.03 ± 0.032
85 | GCGAGU | 1.99 ± 0.04 | 2.03 ± 0.051
86 | ACGAGU | 2.027 ± 0.0034 | 2.028 ± 0.0065
87 | CCGAUA | 1.996 ± 0.0089 | 2.011 ± 0.018
88 | GCGAUA | 1.999 ± 0.0087 | 2 ± 0.011
89 | ACGAUA | 1.971 ± 0.0039 | 2.02 ± 0.036
90 | CCGAUC | 2.055 ± 0.018 | 2.03 ± 0.03
91 | GCGAUC | 2.039 ± 0.014 | 2.003 ± 0.015
92 | UCGAUC | 2.06 ± 0.025 | 2.03 ± 0.026

Row | Variant | normalized RNA/DNA level without ligand (log10) ((6R,S)-folinic acid [1]) | normalized RNA/DNA level with ligand (log10) ((6R,S)-folinic acid [2])
93 | CCGAUG | 2 ± 0.023 | 1.99 ± 0.036
94 | ACGAUG | 1.925 ± 0.016 | 2.03 ± 0.031
95 | CCGAUU | 2.06 ± 0.051 | 2.053 ± 0.018
96 | GCGAUU | 2.032 ± 0.016 | 2.04 ± 0.048
97 | UCGAUU | 2.02 ± 0.03 | 2.04 ± 0.053
98 | ACGAUU | 2.0259 ± 0.00039 | 2.03 ± 0.026
99 | CCGCAA | 1.986 ± 0.018 | 2 ± 0.042
100 | GCGCAA | 1.948 ± 0.0028 | 1.98 ± 0.027
101 | UCGCAA | 1.973 ± 0.017 | 1.998 ± 0.018
102 | ACGCAA | 1.988 ± 0.011 | 2.01 ± 0.031
103 | CCGCAC | 1.997 ± 0.0034 | 1.99 ± 0.029
104 | UCGCAC | 2.04 ± 0.025 | 2.03 ± 0.048
105 | ACGCAC | 2.024 ± 0.016 | 2.03 ± 0.027
106 | CCGCAG | 1.97 ± 0.004 | 1.99 ± 0.066
107 | GCGCAG | 2 ± 0.022 | 2.03 ± 0.027
108 | UCGCAG | 1.921 ± 0.0076 | 2.01 ± 0.024
109 | ACGCAG | 1.934 ± 0.018 | 2.01 ± 0.027
110 | CCGCAU | 2 ± 0.0024 | 2.017 ± 0.018
111 | GCGCAU | 1.9847 ± 0.0014 | 2 ± 0.038
112 | ACGCAU | 1.987 ± 0.012 | 2.01 ± 0.014
113 | CCGCCA | 2.0675 ± 0.0011 | 2.04 ± 0.035
114 | GCGCCA | 2.08 ± 0.023 | 2.03 ± 0.03
115 | UCGCCA | 2.027 ± 0.0078 | 2.03 ± 0.023
